Measured values: the supplement of paper PMC9112550, “Optimization of the antimicrobial peptide Bac7 by deep mutational scanning” (BMC Biology, 2022)

Test system: Escherichia coli TOP10
Test: shrunken log2 fold change of peptide-encoding DNA abundance (4.5 h post-induction vs induction); higher = less antimicrobial activity (less host growth inhibition)
Conditions: time post-induction: 4.5 h; library: site-saturation at positions 5, 18, 19, 20
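Note: peptides expressed intracellularly from a pBAD plasmid library in pooled LB shake-flask culture, induced with 0.3% L-arabinose, DNA abundance read by NGS, three biological replicates, DESeq2 with apeglm shrinkage.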

## RRIRTRPPRLPRPRPRPKSRPRP
  shrunken log2 fold change: -0.0444

## RRIRTRPPRLPRPRPRPKSWPRP
  shrunken log2 fold change: 0.245

## RRIRTRPPRLPRPRPRPKTPPRP
  shrunken log2 fold change: -0.0565

## RRIRTRPPRLPRPRPRPKVAPRP
  shrunken log2 fold change: 0.0317

## RRIRTRPPRLPRPRPRPKVLPRP
  shrunken log2 fold change: -0.015

## RRIRTRPPRLPRPRPRPKYLPRP
  shrunken log2 fold change: -0.0222

## RRIRTRPPRLPRPRPRPKYTPRP
  shrunken log2 fold change: -0.508

## RRIRTRPPRLPRPRPRPLDCPRP
  shrunken log2 fold change: -0.294

## RRIRTRPPRLPRPRPRPLFGPRP
  shrunken log2 fold change: -0.186

## RRIRTRPPRLPRPRPRPLGQPRP
  shrunken log2 fold change: -0.137

## RRIRTRPPRLPRPRPRPLIIPRP
  shrunken log2 fold change: -0.784

## RRIRTRPPRLPRPRPRPLIKPRP
  shrunken log2 fold change: -1.06

## RRIRTRPPRLPRPRPRPLKVPRP
  shrunken log2 fold change: -0.221

## RRIRTRPPRLPRPRPRPLLGPRP
  shrunken log2 fold change: -0.185

## RRIRTRPPRLPRPRPRPLLHPRP
  shrunken log2 fold change: 0.0651

## RRIRTRPPRLPRPRPRPLLNPRP
  shrunken log2 fold change: -0.157

## RRIRTRPPRLPRPRPRPLMSPRP
  shrunken log2 fold change: 0.0356

## RRIRTRPPRLPRPRPRPLNLPRP
  shrunken log2 fold change: -0.548

## RRIRTRPPRLPRPRPRPLPEPRP
  shrunken log2 fold change: 0.126

## RRIRTRPPRLPRPRPRPLPRPRP
  shrunken log2 fold change: 0.484

## RRIRTRPPRLPRPRPRPLQNPRP
  shrunken log2 fold change: 0.163

## RRIRTRPPRLPRPRPRPLRLPRP
  shrunken log2 fold change: 0.219

## RRIRTRPPRLPRPRPRPLSLPRP
  shrunken log2 fold change: -0.613

## RRIRTRPPRLPRPRPRPLTMPRP
  shrunken log2 fold change: -0.27

## RRIRTRPPRLPRPRPRPLWDPRP
  shrunken log2 fold change: -0.0109

## RRIRTRPPRLPRPRPRPLYAPRP
  shrunken log2 fold change: -0.274

## RRIRTRPPRLPRPRPRPMCKPRP
  shrunken log2 fold change: -0.0839

## RRIRTRPPRLPRPRPRPMCTPRP
  shrunken log2 fold change: -0.0211

## RRIRTRPPRLPRPRPRPMEIPRP
  shrunken log2 fold change: -0.00196

## RRIRTRPPRLPRPRPRPMERPRP
  shrunken log2 fold change: 0.0039

## RRIRTRPPRLPRPRPRPMFPPRP
  shrunken log2 fold change: 0.0617

## RRIRTRPPRLPRPRPRPMHIPRP
  shrunken log2 fold change: -0.158

## RRIRTRPPRLPRPRPRPMKCPRP
  shrunken log2 fold change: -0.0722

## RRIRTRPPRLPRPRPRPMKMPRP
  shrunken log2 fold change: 0.0821

## RRIRTRPPRLPRPRPRPMKPPRP
  shrunken log2 fold change: -0.0805

## RRIRTRPPRLPRPRPRPMKSPRP
  shrunken log2 fold change: -0.203

## RRIRTRPPRLPRPRPRPMLHPRP
  shrunken log2 fold change: 0.111

## RRIRTRPPRLPRPRPRPMLKPRP
  shrunken log2 fold change: -0.106

## RRIRTRPPRLPRPRPRPMPCPRP
  shrunken log2 fold change: 0.159

## RRIRTRPPRLPRPRPRPMRKPRP
  shrunken log2 fold change: 0.375

## RRIRTRPPRLPRPRPRPMSMPRP
  shrunken log2 fold change: -0.171

## RRIRTRPPRLPRPRPRPMVIPRP
  shrunken log2 fold change: -0.0894

## RRIRTRPPRLPRPRPRPMVLPRP
  shrunken log2 fold change: -0.0596

## RRIRTRPPRLPRPRPRPMVQPRP
  shrunken log2 fold change: 0.0197

## RRIRTRPPRLPRPRPRPMWWPRP
  shrunken log2 fold change: -0.0168

## RRIRTRPPRLPRPRPRPMYPPRP
  shrunken log2 fold change: 0.0537

## RRIRTRPPRLPRPRPRPMYSPRP
  shrunken log2 fold change: -0.00295

## RRIRTRPPRLPRPRPRPMYWPRP
  shrunken log2 fold change: -0.131

## RRIRTRPPRLPRPRPRPNAFPRP
  shrunken log2 fold change: -0.0622

## RRIRTRPPRLPRPRPRPNAGPRP
  shrunken log2 fold change: 0.0361

## RRIRTRPPRLPRPRPRPNEMPRP
  shrunken log2 fold change: -0.235

## RRIRTRPPRLPRPRPRPNFQPRP
  shrunken log2 fold change: 0.00569

## RRIRTRPPRLPRPRPRPNFRPRP
  shrunken log2 fold change: -0.152

## RRIRTRPPRLPRPRPRPNGIPRP
  shrunken log2 fold change: 0.0301

## RRIRTRPPRLPRPRPRPNHAPRP
  shrunken log2 fold change: 0.176

## RRIRTRPPRLPRPRPRPNHHPRP
  shrunken log2 fold change: -0.687

## RRIRTRPPRLPRPRPRPNHNPRP
  shrunken log2 fold change: -0.914

## RRIRTRPPRLPRPRPRPNHQPRP
  shrunken log2 fold change: -0.35

## RRIRTRPPRLPRPRPRPNKAPRP
  shrunken log2 fold change: -0.0944

## RRIRTRPPRLPRPRPRPNLIPRP
  shrunken log2 fold change: -0.408

## RRIRTRPPRLPRPRPRPNLSPRP
  shrunken log2 fold change: 0.00227

## RRIRTRPPRLPRPRPRPNMDPRP
  shrunken log2 fold change: -0.508

## RRIRTRPPRLPRPRPRPNMEPRP
  shrunken log2 fold change: 0.343

## RRIRTRPPRLPRPRPRPNMMPRP
  shrunken log2 fold change: -0.237

## RRIRTRPPRLPRPRPRPNMVPRP
  shrunken log2 fold change: -0.0672

## RRIRTRPPRLPRPRPRPNNAPRP
  shrunken log2 fold change: -0.303

## RRIRTRPPRLPRPRPRPNNTPRP
  shrunken log2 fold change: -0.518

## RRIRTRPPRLPRPRPRPNNWPRP
  shrunken log2 fold change: -0.12

## RRIRTRPPRLPRPRPRPNPKPRP
  shrunken log2 fold change: 0.27

## RRIRTRPPRLPRPRPRPNRHPRP
  shrunken log2 fold change: -0.36

## RRIRTRPPRLPRPRPRPNRTPRP
  shrunken log2 fold change: -0.002

## RRIRTRPPRLPRPRPRPNRWPRP
  shrunken log2 fold change: -0.0997

## RRIRTRPPRLPRPRPRPNTTPRP
  shrunken log2 fold change: -0.164

## RRIRTRPPRLPRPRPRPNVDPRP
  shrunken log2 fold change: -0.625

## RRIRTRPPRLPRPRPRPNWHPRP
  shrunken log2 fold change: -0.0773

## RRIRTRPPRLPRPRPRPNWWPRP
  shrunken log2 fold change: 0.188

## RRIRTRPPRLPRPRPRPNYMPRP
  shrunken log2 fold change: 0.0222

## RRIRTRPPRLPRPRPRPPAEPRP
  shrunken log2 fold change: 0.378

## RRIRTRPPRLPRPRPRPPAKPRP
  shrunken log2 fold change: 1.11

## RRIRTRPPRLPRPRPRPPDCPRP
  shrunken log2 fold change: 0.0461

## RRIRTRPPRLPRPRPRPPDQPRP
  shrunken log2 fold change: 0.601

## RRIRTRPPRLPRPRPRPPEFPRP
  shrunken log2 fold change: -0.231

## RRIRTRPPRLPRPRPRPPFQPRP
  shrunken log2 fold change: 0.0322

## RRIRTRPPRLPRPRPRPPFRPRP
  shrunken log2 fold change: 0.693

## RRIRTRPPRLPRPRPRPPGKPRP
  shrunken log2 fold change: 0.129

## RRIRTRPPRLPRPRPRPPGMPRP
  shrunken log2 fold change: 0.424

## RRIRTRPPRLPRPRPRPPHHPRP
  shrunken log2 fold change: -0.149

## RRIRTRPPRLPRPRPRPPISPRP
  shrunken log2 fold change: 0.075

## RRIRTRPPRLPRPRPRPPKCPRP
  shrunken log2 fold change: -0.339

## RRIRTRPPRLPRPRPRPPKFPRP
  shrunken log2 fold change: -0.025

## RRIRTRPPRLPRPRPRPPKWPRP
  shrunken log2 fold change: 0.181

## RRIRTRPPRLPRPRPRPPLQPRP
  shrunken log2 fold change: 0.369

## RRIRTRPPRLPRPRPRPPMMPRP
  shrunken log2 fold change: -0.121

## RRIRTRPPRLPRPRPRPPMNPRP
  shrunken log2 fold change: -0.399

## RRIRTRPPRLPRPRPRPPPFPRP
  shrunken log2 fold change: 0.452

## RRIRTRPPRLPRPRPRPPQCPRP
  shrunken log2 fold change: 0.0145

## RRIRTRPPRLPRPRPRPPQGPRP
  shrunken log2 fold change: 0.235

## RRIRTRPPRLPRPRPRPPRHPRP
  shrunken log2 fold change: 0.152

## RRIRTRPPRLPRPRPRPPSAPRP
  shrunken log2 fold change: 0.442

## RRIRTRPPRLPRPRPRPPSEPRP
  shrunken log2 fold change: 0.42

## RRIRTRPPRLPRPRPRPPTAPRP
  shrunken log2 fold change: -0.0521

## RRIRTRPPRLPRPRPRPPWLPRP
  shrunken log2 fold change: 0.547

## RRIRTRPPRLPRPRPRPPWWPRP
  shrunken log2 fold change: 0.928

## RRIRTRPPRLPRPRPRPPYMPRP
  shrunken log2 fold change: -0.302

## RRIRTRPPRLPRPRPRPPYPPRP
  shrunken log2 fold change: 0.0259

## RRIRTRPPRLPRPRPRPQCCPRP
  shrunken log2 fold change: -0.0803

## RRIRTRPPRLPRPRPRPQCHPRP
  shrunken log2 fold change: -0.0436

## RRIRTRPPRLPRPRPRPQCTPRP
  shrunken log2 fold change: -0.175

## RRIRTRPPRLPRPRPRPQDGPRP
  shrunken log2 fold change: -0.0217

## RRIRTRPPRLPRPRPRPQDNPRP
  shrunken log2 fold change: -0.669

## RRIRTRPPRLPRPRPRPQEGPRP
  shrunken log2 fold change: -0.0173

## RRIRTRPPRLPRPRPRPQESPRP
  shrunken log2 fold change: -0.0142

## RRIRTRPPRLPRPRPRPQGKPRP
  shrunken log2 fold change: -0.108

## RRIRTRPPRLPRPRPRPQIMPRP
  shrunken log2 fold change: -0.337

## RRIRTRPPRLPRPRPRPQIRPRP
  shrunken log2 fold change: -0.312

## RRIRTRPPRLPRPRPRPQKAPRP
  shrunken log2 fold change: 0.00748

## RRIRTRPPRLPRPRPRPQKQPRP
  shrunken log2 fold change: 0.166

## RRIRTRPPRLPRPRPRPQMWPRP
  shrunken log2 fold change: -0.0505

## RRIRTRPPRLPRPRPRPQRGPRP
  shrunken log2 fold change: 0.31

## RRIRTRPPRLPRPRPRPQRIPRP
  shrunken log2 fold change: -0.131

## RRIRTRPPRLPRPRPRPQRYPRP
  shrunken log2 fold change: -0.127

## RRIRTRPPRLPRPRPRPQSGPRP
  shrunken log2 fold change: 0.00577

## RRIRTRPPRLPRPRPRPQSMPRP
  shrunken log2 fold change: 0.13

## RRIRTRPPRLPRPRPRPQSPPRP
  shrunken log2 fold change: -0.0309

## RRIRTRPPRLPRPRPRPQVKPRP
  shrunken log2 fold change: -0.0733

## RRIRTRPPRLPRPRPRPQVPPRP
  shrunken log2 fold change: 0.101

## RRIRTRPPRLPRPRPRPQVSPRP
  shrunken log2 fold change: -0.0699

## RRIRTRPPRLPRPRPRPQVWPRP
  shrunken log2 fold change: 0.112

## RRIRTRPPRLPRPRPRPQWIPRP
  shrunken log2 fold change: -0.809

## RRIRTRPPRLPRPRPRPQWKPRP
  shrunken log2 fold change: 0.0581

## RRIRTRPPRLPRPRPRPQWSPRP
  shrunken log2 fold change: -0.431

## RRIRTRPPRLPRPRPRPQYDPRP
  shrunken log2 fold change: -0.0819

## RRIRTRPPRLPRPRPRPRARPRP
  shrunken log2 fold change: 0.63

## RRIRTRPPRLPRPRPRPRCMPRP
  shrunken log2 fold change: -0.288

## RRIRTRPPRLPRPRPRPRDIPRP
  shrunken log2 fold change: -0.0222

## RRIRTRPPRLPRPRPRPRDLPRP
  shrunken log2 fold change: 0.064

## RRIRTRPPRLPRPRPRPRDSPRP
  shrunken log2 fold change: 0.538

## RRIRTRPPRLPRPRPRPRDYPRP
  shrunken log2 fold change: 0.104

## RRIRTRPPRLPRPRPRPRECPRP
  shrunken log2 fold change: 0.00425

## RRIRTRPPRLPRPRPRPREIPRP
  shrunken log2 fold change: 0.00997

## RRIRTRPPRLPRPRPRPRHHPRP
  shrunken log2 fold change: -0.174

## RRIRTRPPRLPRPRPRPRHIPRP
  shrunken log2 fold change: -0.158

## RRIRTRPPRLPRPRPRPRIEPRP
  shrunken log2 fold change: 0.453

## RRIRTRPPRLPRPRPRPRKCPRP
  shrunken log2 fold change: -0.1

## RRIRTRPPRLPRPRPRPRKIPRP
  shrunken log2 fold change: -0.0707

## RRIRTRPPRLPRPRPRPRLIPRP
  shrunken log2 fold change: -0.113

## RRIRTRPPRLPRPRPRPRLMPRP
  shrunken log2 fold change: 0.119

## RRIRTRPPRLPRPRPRPRLWPRP
  shrunken log2 fold change: 0.154

## RRIRTRPPRLPRPRPRPRSEPRP
  shrunken log2 fold change: 0.116

## RRIRTRPPRLPRPRPRPRWPPRP
  shrunken log2 fold change: 0.424
